Patent US12201692B2, “Targeted protease compositions and uses related thereto” (Emory University, priority 2013, dated 2025)
Entries after “also recorded” stand apart in the source; their conditions may differ.

How the values were obtained:
uPAR = uPAR (Homo sapiens, UniProt Q03405); assay: uPAR-targeting efficiency of ATF fragment; conditions: in comparison with the full length ATF (135 aa)
[1] = Solubility of recombinant ATF fragments; format: physicochemical; conditions: compared to ATF 135 aa
Excerpt: The amino terminal fragment (ATF, 135 aa) of uPA was used as a target ligand to develop uPAR-targeted theranostic IONPs. The yield and purity of recombinant ATF from bacterial cultures have been less than optimal due to the formation of undesirable aggregates. By removing of the hydrophobic amino acids that promote the formation of aggregates, uPAR targeting ligands (39 and 68 aa) with receptor-binding peptide regions were engineered as improvements.
In comparison with the full length ATF (135 aa), this short uPAR targeted ligand is an improved candidate to engineer the fusion targeting ligand ATF68-MMP14 with dual uPAR targeting and MMP14 protease activity.

uPAR, sequence (Q03405 23-305): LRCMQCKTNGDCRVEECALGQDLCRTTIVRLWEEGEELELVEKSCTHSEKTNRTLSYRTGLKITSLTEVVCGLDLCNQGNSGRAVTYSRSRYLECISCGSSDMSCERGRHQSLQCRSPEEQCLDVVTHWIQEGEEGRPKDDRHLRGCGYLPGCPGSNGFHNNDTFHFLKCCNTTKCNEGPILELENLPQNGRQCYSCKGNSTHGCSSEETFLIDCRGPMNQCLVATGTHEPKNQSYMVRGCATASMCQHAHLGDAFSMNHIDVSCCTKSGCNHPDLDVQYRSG

B1: ATF68: uPA-ATF with only the growth factor domain, 68 aa uPAR targeting ligand (SEQ ID NO:2) (protein)
chain: SNELHQVPSNCDCLNGGTCVSNKYFSNIHWCNCPKKFGGQHCEIDKSKTCYEGNGHFYRGKASTDTMG
uPAR-targeting efficiency (uPAR): higher uPAR-targeting efficiency | solubility [1]: better solubility; also recorded: improved physiological solubility
